Assay results reported in patent US20220356246A1 (published 2022).
Substitutions are numbered along the chain they refer to. Values belong to the binder of their own block, whether it stands above or below them.

Target: Human ROR1-ECD (human, UniProt Q01973 30-406)
Test: BLI (Fortebio)

Chain of Human ROR1-ECD (Q01973 30-406): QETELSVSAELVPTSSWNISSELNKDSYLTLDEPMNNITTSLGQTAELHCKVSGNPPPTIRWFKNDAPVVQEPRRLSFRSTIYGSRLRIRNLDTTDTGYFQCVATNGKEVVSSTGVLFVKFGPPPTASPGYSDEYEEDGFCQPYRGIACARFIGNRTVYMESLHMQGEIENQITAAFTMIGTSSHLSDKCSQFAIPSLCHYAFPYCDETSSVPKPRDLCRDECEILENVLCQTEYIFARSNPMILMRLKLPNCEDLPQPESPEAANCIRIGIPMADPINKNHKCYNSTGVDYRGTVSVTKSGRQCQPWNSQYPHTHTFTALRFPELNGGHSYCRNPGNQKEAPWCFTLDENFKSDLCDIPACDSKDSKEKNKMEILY

Kd: 43.7 nM
B1: anti-ROR1 antibody clone G6 (antibody, V domains shown)
VH: EVQLVESGGGVVQPGGSLRLSCAASGFTFDDYAMHWVRQAPGKGLEWVSLISGDGGSTYYADSVKGRFTISRDNAKNSLYLQMNSLRAEDTAVYYCARDNWNDVYYYYGMDVWGQGTTVTVSS
VL: DIQLTQSPSSLSASIGDTVTISCQASRDISDYLNWYQHKPGKAPKLLIYDASNLATGVPSRFSGSGSGTDFTLTIKSLQPEDVATYFCQQDDLLPLTFGGGTKVDIK

Kd: 4.48 nM
B2: anti-ROR1 antibody clone G3 (antibody, V domains shown)
VH: QVQLQQWGAGLLKPSETLSLTCAVYGGSFSGYYWSWIRQPPGKGLEWIGEINHSGSTSYNPSLKSRVTISVDTSKNQFSLKLSSVTAADTAVYYCARGHSSGWYRRYFDLWGRGTLVTVSS
VL: EIVLTQSPATLSLSPGERATLSCRASQSVSSYLAWYQQKPGQAPRLLIYDASNRATGIPAKFSGSGSGTDFTLTISSLEPEDFAVYYCQQRSNWPPTFGGGTKVEIK

Kd: 3.25 nM
B3: anti-ROR1 antibody clone C3 (antibody, V domains shown)
VH: QVQLQESGPGLVKPSETLSLTCTVSGGSISSYYWSWIRQLPGKGLEWIGYMHYSGSTSYNPSLKGRLTISVDTSTNQFSLKLGSVTAADTAVYYCARYYYHDSSGYYSYFDYWGQGTLVTVSS
VL: B2 VL with A9G, P40A, T56S, K61R
